Assay results reported in patent publication US11448657B2, “Methods and kits for assessing Heparanase procoagulant activity, compositions comprising Heparanase, and methods for the treatment of coagulation-related disorders” (RAMBAM MED-TECH, priority 2011, dated 2022).

Tested on: normal human plasma
Experiment: Factor Xa generation in pooled normal human plasma
Type: biochemical
Details: factor VIIa and factor X added, 15 min 37° C.
Procedure: Increasing doses of heparanase were added to pooled normal human plasma (25 μL plasma). After 15 min at 37° C., chromogenic substrate for the detection of factor Xa was added (1 mM). The mean value±SD of three independent experiments is shown. Note a 7- to 8-fold increase in coagulation activity in the presence of heparanase.
Next, the procoagulant effect of heparanase in human plasma was tested. Using an ELISA method [Shafat I. et al., Biochem Biophys Res. Commun. […] When heparanase, factor VIIa and factor X were incubated (15 min, 37° C.) with pooled normal human plasma from five healthy donors, followed by the addition of a chromogenic substrate for factor Xa, a 7- to 8-fold increase in factor Xa levels was obtained com-pared to levels in plasma incubated in the absence of heparanase (FIG. 2). In this condition the coagulation was mainly dependent on the concentration of endogenous TF, as described previously [Suefuji H. et al., Am Heart J. 1997, 134(2 Pt. 1):253-259; Kim H K et al., Cardiology. 2000, 93(1-2):31-36]. The effect of heparanase was also tested in whole blood using thromboelastography. Citrated blood samples from healthy donors to which factor VIIa (0.04 μM) and factor X (1.4 μM) were added were recalcified according to the manufacturer's recommendations (final concentration of CaCl2) 8 mM) and arranged in the disposable cups of the thromboelastogram. […]

B1: heparanase: single chain GS3 active heparanase, comprised of the 8 kDa and 50 kDa heparanase heterodimer (8+50), recombinant human (protein, listed as Homo sapiens)
chain 1: DPAQDVVDLDFFTQEPLHLVSPSFLSVTIDANLATDPRFLILLGSPKLRTLARGLSPAYLRFGGTKTDFLIFDPKKE
chain 2: DPGKKFKNSTYSRSSVDVLYTFANCSGLDLIFGLNALLRTADLQWNSSNAQLLLDYCSSKGYNISWELGNEPNSFLKKADIFINGSQLGEDFIQLHKLLRKSTFKNAKLYGPDVGQPRRKTAKMLKSFLKAGGEVIDSVTWHHYYLNGRTATREDFLNPDVLDIFISSVQKVFQVVESTRPGKKVWLGETSSAYGGGAPLLSDTFAAGFMWLDKLGLSARMGIEVVMRQVFFGAGNYHLVDENFDPLPDYWLSLLFKKLVGTKVLMASVQGSKRRKLRVYLHCTNTDNPRYKEGDLTLYAINLHNVTKYLRLPYPFSNKQVDKYLLRPLGPHGLLSKSVQLNGLTLKMVDDQTLPPLMEKPLRPGSSLGLPAFSYSFFVIRNAKVAACI
modifications: single-chain GS3 linker
B1 was tested, and the “increase in coagulation activity (factor Xa levels) in plasma” value was 7- to 8 fold.
